For this test, the target named is histones (calf thymus, type IIIS) (calf (thymus)) (UniProt P02253). Put plainly: ITC.
Chain of UniProt P02253 (P02253 whole entry): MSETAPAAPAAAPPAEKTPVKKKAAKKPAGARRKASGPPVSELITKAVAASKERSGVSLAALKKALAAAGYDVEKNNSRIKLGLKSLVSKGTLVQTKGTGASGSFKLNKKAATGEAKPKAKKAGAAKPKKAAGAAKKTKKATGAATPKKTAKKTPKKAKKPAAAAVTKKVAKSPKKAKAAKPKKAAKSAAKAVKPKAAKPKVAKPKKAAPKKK

Turning to “large fibrin degradation products (molecular masses >150 kDa) (from UniProt P02671 36-866; P02675 45-491; P02679 27-453) (complex)”, the Kd stood at 191 nM.

For the origin of these results see article PMC3591605.
